Measured values: patent publication US20200138986A1 (FREDAX, published 2020)

How the values were obtained:
[1] = target: T1, human glandular kallikrein 2 (hK2) (human, UniProt P20151 25-261); experiment: cell-based or functional assay
[2] = target: T1, human glandular kallikrein 2 (hK2); experiment: method not stated (told in the Materials section of Example 10)
[3] = target: T2, free prostate-specific antigen (fPSA) (human, UniProt P07288 25-261); experiment: Time-resolved Eu fluorescence immunoassay: coat goat anti-human polyclonal, 5A10-Fab 15 ng/well, Eu-PSA titrated from about 0.15 to 20 ng/well [upper and lower panels]
T2 construct: In the IRMA, fPSA was spiked into female plasma and captured by mAb H117; also called hk3; human kallikrein 3
T2 sequence (P07288 25-261 limits assumed): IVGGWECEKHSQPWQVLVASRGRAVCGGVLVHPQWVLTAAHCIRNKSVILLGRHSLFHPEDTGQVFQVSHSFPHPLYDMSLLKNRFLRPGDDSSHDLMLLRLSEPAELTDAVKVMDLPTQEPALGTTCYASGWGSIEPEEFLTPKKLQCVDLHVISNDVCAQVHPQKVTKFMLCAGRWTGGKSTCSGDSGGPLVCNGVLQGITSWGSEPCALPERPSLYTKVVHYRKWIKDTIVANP

T1 sequence (P20151 25-261 limits assumed): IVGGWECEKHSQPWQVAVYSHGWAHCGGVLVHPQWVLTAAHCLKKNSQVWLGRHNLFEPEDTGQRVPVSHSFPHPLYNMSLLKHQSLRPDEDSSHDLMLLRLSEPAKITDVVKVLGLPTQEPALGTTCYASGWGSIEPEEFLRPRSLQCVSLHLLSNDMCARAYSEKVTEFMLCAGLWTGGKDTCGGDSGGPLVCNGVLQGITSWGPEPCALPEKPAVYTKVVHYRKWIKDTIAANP

B1: 111In-CHX-A''-DTPA-11B6 (antibody, V domains shown)
VH: DVQLQESGPGLVKPSQSLSLTCTVTGNSITSDYAWNWIRQFPGNRLEWMGYISYSGSTTYSPSLKSRFSITRDTSKNQFFLQLNSVTPEDTATYFCATGYYYGSGFWGQGTLVTVSS
VL: DIVLTQSPASLAVSLGQRATISCRASESVEYFGTSLMHWYRQKPGQPPKLLIYAASNVESGVPARFSGSGSGTDFSLNIQPVEEDDFSMYFCQQTRKVPYTFGGGTKLEIK
modifications: CHX-A''-DTPA chelator conjugated to the antibody and labelled with 111In; sites not stated
B1 was tested, and the “tumor uptake in hK2-expressing xenografts (LnCAP) against hK2-negative xenografts (DU145) at 48 hpi” value [1] was greater than 3 fold.

B2: mAb 11B6 (mouse monoclonal anti-hK2 antibody) (antibody, V domains shown)
VH: DVQLQESGPGLVKPSQSLSLTCTVTGNSITSDYAWNWIRQFPGNRLEWMGYISYSGSTTYSPSLKSRFSITRDTSKNQFFLQLNSVTPEDTATYFCATGYYYGSGFWGQGTLVTVSS
VL: DIVLTQSPASLAVSLGQRATISCRASESVEYFGTSLMHWYRQKPGQPPKLLIYAASNVESGVPARFSGSGSGTDFSLNIQPVEEDDFSMYFCQQTRKVPYTFGGGTKLEIK
notes: Whole mouse monoclonal antibody obtained from the University of Turku; also called m11B6; mouse mAb 11B6
B2 was tested, and the Kd [2] was roughly 1.2 nM.

B3: 5A10-Fab (Fab, V domains shown)
VH: EVQLVESGPGILQPSQTLSLTCSFSGFSLSTTGMGVSWIRQPSGKGLEWLAHLYWDEDKRYNPSLKSRLTISEDSSRNQVFLKITSVGPADSATYYCARKGYYGYFDYWGQGTALTVSS
VL: DIVMTQSQKFMSTSVGDRVSVTCKASQNVNTDVAWYQQKPGQSPKALIFSTSYRSSGVPDRFTGSGSGTDFTLTITNVQSEDLAEYFCQQYSNYPLTFGAGTKVDLN
notes: also called exemplary 5A10-Fab; Fab fragment of anti-PSA antibody 5A10
B3: binds [3].
